In the nanobody polyreactivity screen of Harvey et al. (2022):

experiment: yeast display, Sf9 membrane polyspecificity reagent, FACS + sequencing; frameworks hold sequencing errors
In short: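 Nanobodies came from a synthetic yeast display library in Saccharomyces cerevisiae BJ5465, induced with galactose for 36–48 hours and stained for 1 hour at 4 °C with 10% biotinylated, detergent-solubilized Sf9 membrane reagent. Cells were enriched on streptavidin microbeads and then FACS-sorted, with low and high (top ~1%) gates set on anti-HA fluorescence for expression and streptavidin fluorescence for reagent binding. Each polyreactivity label reflects the gate a clone came from. Genes were amplified by colony PCR, sequenced by MiSeq 2 × 250 and filtered by CDR length.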

| Sequence | polyreactivity (PSR sort gate) |
| --- | --- |
| QVQLVESGGGVVQAGGSLRLSCAASGSTSGIYAMGWYRQAPGKERELVAAIDTYGGSTYADSVKGRFTISRDNAKNTVYLQMNSVKPEDTAVYYCAKPFSSNSWSHGYCGQGTQVTVSS | low polyreactivity |
| QVQLVESGGGLVQAGGSLRLSCAASGITFVSNVMGWYRQAPGKEREFVAAINVSGDSTTYADSVKGRFTISRDNAKNTVYLQRNSLKPEDTAVYYCAAEYNFPEFPWGGEYDYWGQGTQVTVSS | low polyreactivity |
| QVQLVESGGGLVQAGGSLRLSCAASGRIFQYYTMGWYRQAPGKERELVAAISYGGGSTYYADSVKGRFTISRDHAKNTVYLQMNSLKPEDTAVYYCNAVTYSRRYAYYYWGQGTQVTVSS | high polyreactivity |
| QVQLVESGGGLVQAGGSLRLSCAASGNTFVGYTMGWYRHAPGKERELVAAISWNGGTTYYADSVKGRFTISRDNAKNTVYLQMNSLKPEDTAVYYCNTRWYTRRFDYWGQGTQVTVSS | high polyreactivity |
| QVQLVESGGGLVQAGGSLRLNCAASGSIFLIYAMGWYRQATGKERELVAGINWSGSRTYNADSVKGRFTISRDNAKNTVYLQMNSLKPEDTAVYYCAARVRRPLYSAYDSWGQGTQVTVSS | low polyreactivity |
| QVQLLESGGGLVQAGGSLRLSCAASGRTLVGYAMGWYRQAPGTERELVAAITGSGGRTYYADSVKGRFTISRDNAKNTVYLQMNSLKPEDTAVYYCNKVYRVSSGAYLYDYWGQGTQVTVSS | high polyreactivity |
| QVQLVESGGGLVQAGGSLRLSCAASGITLYSYAMGWYRPAPGKERELVAAISWDGGGTYYADSVKGRFTISRDNAKNTVYLQMNSLKPEDTAVYYCAADTQYTDGDSWGQGTQVTVSS | high polyreactivity |
| QVQLVESGGGLVQAGGSLRLSCAASGLIFPSYARGWYRQAPGKERELVAGINSGGSTNYADSVKGRFTISRDNAKNTVYLQMNSLKPEDTAVYYCAKDNNYYWYVSPRDYWGQGTQVTVSS | low polyreactivity |
| QVQLVESCGGLVQAGGSLRLSCAASGIIFWWYTMGWYRQAPGKERELVAAISRGGNTNYADSVKGRFTISRDNAKNTVYLQMNSLKTEDTAFYYCAADRHYRFWQYDYWGQGTQVTVSS | high polyreactivity |
| QGQRVESGGGLVQAGGSLRLSCAASGFIFSYYTMGWYRQAPGKERELVAAISSTGRTNYADSVKGRFTISRDNAKHTVYLQMNSLKPDDTAFYYCNAAKLSYGPWRGYYKLDVWGQGTQVTVSS | high polyreactivity |
| QVQLVESGGGLVQAGGSLRLSCAAYGSIFDVHAMGWNRQAPGKERELVAAISDSGGSTYYADSVKGRFTISRDNAKNTVYLLMKSLKPDDTAVYYCNADWSWFNYYDFDYWGQGTHVTVSS | low polyreactivity |
| QVQLVESGGGLVQAGGSLRLSCAASGRIFPHNAMGWYRQAPGKERELVAAITKSGDDTYYADSVKGRFTISRDNAKNTVYLQMNSLKPEDTAVYYCAAYLSWYDYWGQGTQVTVSS | low polyreactivity |
| QVQLVESGGGLVQAGGSLRLSCAASGFTFISYAMGWYRQAPGKERELVAVINQRGGRTYYADSVKGRFTISRDNAKNTVYLQMNSLKPEDTAVYYCATRLKSVSGGYNYWGQGTQVTVSS | high polyreactivity |
| QVQLVESGGGLVQARGSLRLSCAASGRIFKYNAMGWYRQAPGKESELVAAISGGGSTNYADSVKGRFTISRDNAKNTVYLLMNSLKPEDTAVYYCAKGYRRVYGPFYYWGQGTQVTVSS | low polyreactivity |
| HVQLVESGGGLVQAGGSLRLSCAASGRTFVNYTMGWYRQAPGKVRELVAAIRYRDGSTYYADSVKGRFTISRDNAKKTVYLQMNSLKPEDTAVYYCNNRITQVGDYIYDYWRQGTQVTVSS | low polyreactivity |
| QVQLVESGGGLVQAGGSLRLSCAASGSNFVEYAMGWYRQAPGKERELVAGISSGGITSYADSVKGRFTISRDNAKNTVYLQMNSLKPEDTAVYYCATDPYKWFYSSYYLLQEVEYWGQGTQVTVSS | low polyreactivity |

| Sequence | polyreactivity (PSR sort gate) |
| --- | --- |
| QVQLVESGGGLVQAGGSLRLSCAASGRIFTVYAMGWYRQAPGKERELVAAISGRGGRTYYADSVKGRFTISRDNAKNTVYLQMNSLKPEDTAVYYCNADTLTLTRPDGDIHTVWMDYWGQGTQVTVSS | low polyreactivity |
| QVQIVESGGGLVQAGGSLRLSCASSGSTFVSYDMGWYRQAPGKERELVADISWSGVSTYADSVKGRFTISRDNAMNTVYLQMNSLKPEDTAVYYCAKDSDLYQRGGYYWGQGTQVTVSS | low polyreactivity |
| QVQLVESGGGLVQAGGSLRLSCAASGSIFVSNAMGWSRPAPGKDRELVAGINYSGGSTYYADSVKGRFTISRDNAKNTVYLQLTSLKPEDTAVYYCARRRPYQWPYNYWGQGTQVTVSS | high polyreactivity |
| QVQLVESGGGLVQAGGSLRLSCAASGRTFGANAMGWYRQAPGKERELVAGITSSGGSTSYADSVKGRFTISRDNAKNTVYLQMNSLKPEDTAVYYCAKDVYQHIFDVILGGYDSWGQGTQVTVSS | low polyreactivity |
| QVQLVESGGGLVQAGGSLRLSCAASGRIFSRYVMGWYRQAPGKERELVAAISWNGGSTYYADSVKGRFRISRDNAKNTVYLQMNSLKPEDTAVYYCAARVRVTGTYYTKYDYWGQGTQVTVSS | high polyreactivity |
| QVQLVESGGGLVHAGGSLRLSCAASGFIFYYYTMGWYRQAPGKEREFVAAISSSGTITYYADSVKGRFTISRDNAKNTVYLQMNSLKPEDTAVYYCNAELYYPYEFWRFSGYDYWGQGTQVTVSS | low polyreactivity |
| QVQLVESGGGLVQAGGSLRVSCAASGITFNEYAMGWYRQAPGKEREFVAAITFSGDSTYADSVKGRFTISRDNAKNTVYLQMNSLKPEDTAVYYCAKRGGRQTYYYWGQGTQVTVSS | high polyreactivity |
| QVQLVESGGRLVQAGGSLRISCAASGRTFRYYAKGWYRQAPGKERELVAAISSRGTRTYYADSVKGRFTISRDNAKNTGYLQMNSLKPEDTAVYYCATRYYQELAYDFWGQGTQVIVSS | high polyreactivity |
| QVQLVESGGGLVQAGGSLRLSCAASGSILLDYAMGWYRQAPGKERELVAVISRRGTSTYYADSVKGRFTISRDNAKNTVYLQMNSLKPEDTAVYYCATSTWSFYRRYDYWGQGTQVTVSS | high polyreactivity |
| QVQLVESGGGLVQAGGSLRLSCAASGYIFNYYAMGWYRQAPGKERELVAAITSGDSTYADSVKGRFTISRDNAKNTVYLQMNSLKPEDTAVYYCAAEISILPFVTPDTIYGYWGQGTQVTVSS | low polyreactivity |
| QVQLVESGGGLVQAGGSLRLSCAASGSIYGYNAMGWYRQAPGKEREFVAAISWSGGRTYYADSVKGRFTISRDTAKNTVYLQMNSLNPEDTAVYYCAAPSRPAPRFDYWGQGTQVTVSS | low polyreactivity |
| QVQLVESGGGLVQAGGSLRLSCAASGRTFPTNMGWYRQAPGKERELVATITGGGGSTIYADSVKGRFTISRDNAKNTVYLQMNSLKPEDTAVYYCAKTLSPEGVPYDYWGQGTQVTVSS | low polyreactivity |
| QVQLVESGGGLVQAGGSLPLSCAASGRTFRSNAMGWYRQAPGKERELVAAISWSGGSTYYADSVKGRFTISRDNAKTSVYFQLNSLKPEDTAVYYCAAYYYTRFEWGQGTQVTVSS | high polyreactivity |
| QVQLVESRGGLVQAGGSLRLSCAASGSTFGPYTMGWYRQAPGKERELDAAISWNGGRTSYADSVKGRFTLSRDNAKNTVYLQKNSLKPEDTAGYYCAAGYFVGIYKRFYWGQGTQVTVSS | high polyreactivity |
| QVQHVESGGGLVQAGGSLRLSCAASGSIFRRYDLGWSRQAPGKERELVAAISSSGGSTYYADSVKGRFTISRDNAKNTVYLQMNSLKPEDTAVYYCAADIYDDDRSESTEYDYWGQGTQVTVSS | low polyreactivity |
| QVQLVESGGGLVQAGGSLRLSCAASGSTLGRYTMGWYRQAPGKERELVATITASGGGTYYADSVKGRFTISRDTAKNTVYLQMNSLKPEDTAVYYCNAVLWYHFGYDYWGQGTQVTVSS | low polyreactivity |
